Measured values published in paper PMC6720803, “Stability Evaluation and Stabilization of a Gastrin-Releasing Peptide Receptor (GRPR) Targeting Imaging Pharmaceutical” (Molecules, 2019).

What was measured:
[1] = system: gastrin-releasing peptide (GRP) receptors in a PC-3 cell line; set-up: method as in PMID 16818949, PMID 16909223; conditions: GRP receptors in PC-3 cell line; cited from earlier work
Method: The first proof-of-concept GRPR targeting study was conducted using a ^99mTc-labeled BBN (7–14) conjugate (RP527) for breast and prostate cancer imaging. […] Despite the general consensus rel ...

[2] = log D by shake-flask method; assay type: physicochemical
Method: The log D values were determined by a traditional shake-flask method. In a typical experiment, 10 μL sample of ^177Lu-labeled AMBA or RM1 with 0.037–0.052 GBq/mL radioconcentration and 814 GBq/mmol molar activity were added to a 4 mL mixture of 50:50 octanol:water. The mixture was shaken for one minute and mixed well. The sample was stored at room temperature for 5 min for separation of the two layers. Sample from each layer (25 μL) was added to a counting tube containing 250 μL water. The samples were mixed and counted. Triplicate measurements were made. The log D values were calculated using Equation (1): D = Counts in organic phase/Counts in the aqueous phase.(1)

[3] = assay type: physicochemical; conditions: pH 7.2
Method: A dose calibrator (Capintec, Florham Park, NJ, USA) and a Wizard 2480 gamma counter (Perkin Elmer, Waltham, MA, USA) were used for radioactivity measurements in the samples. A model 1100 Agilent HPLC system (Agilent, Wilmington, DE, USA) was used for the analysis of ^177Lu-labeled RM1 and AMBA and stability samples. The system consisted of a quaternary pump, degasser, column compartment capable of controlling the temperature at ambient or at 37 °C, auto-injector, a multiwavelength detector, and a Flow Ram radioisotope detector (Lab Logic, Sheffield, UK). The system was controlled by Laura software from Lab Logic. […] Zorbax Bonus RP C18 column (4.6 × 250 mm, 5 µm) was used for the analysis of ^177Lu-labeled AMBA and RM1 samples and for the separation of the ^177Lu-labeled AMBA and RM1 from their in vitro metabolic degradants in mouse, human, and canine sera stability samples.
(§1) All mass spectral analyses were performed at the Campus Chemical Instrument Center of the Ohio State University (Columbus, OH, USA) using a Bruker UltrafleXtreme MALDI-TOF MS system. […]

PC-3 tumor = conditions: mouse, in vivo; cited from earlier work
Description: Several classes of BBN antagonists have been designed by modifying the C-terminal residues of naturally amidated BBN agonists. […] Additionally, ^68Ga-, ^111In-, and ^18F-AlF-labeled NOTA-PEG2-RM26 (where RM26 = D-Phe-Gln-Trp-Ala-Val-Gly-His-Sta-L ...

GRPR = system: GRPR; set-up: method as in PMID 23763444, PMID 24312607; conditions: cell binding and internalization; cited from earlier work
[4] = Stability of low-radioconcentration samples in acetate buffer; assay type: physicochemical; conditions: pH 5
Method: The final pH of the ^177Lu-labeled RM1 and AMBA, post radiolabeling, was usually ~5 to 5.5, and the acetate buffer concentration was 0.1 M. Consequently, the degradation kinetics of ^177Lu-labeled RM1 and AMBA were evaluated in this environment after storage at room temperature (25 °C) and 2–8 °C for 5 d. Both samples were analyzed using an RP-HPLC method at various time points.
as §1
All samples of ^177Lu-labeled RM1 were prepared in 0.1 M acetate buffer, pH 5–5.5. […] The stability or degradation of the samples was monitored by a reduction in the percent HPLC peak area of ^177Lu-labeled RM1 with time.
Degradation of ^177Lu-labeled RM1 or AMBA was monitored by a reduction in percent HPLC peak area with time. Half-lives of in vitro acetate buffer and serum degradation for each imaging pharmaceutical were calculated by fitting the percent peak remaining versus time to a first-order kinetics model (Equations (2) and (3)) using Excel or Graph Pad Prism version 5.03 software (Graph Pad Software, Inc., La Jolla, CA, USA). […]

[5] = In vitro human serum stability; assay type: in vitro ADME; conditions: 50 µL labeled peptide + 450 µL human serum, 37 °C, RP-HPLC, read-out: degradation in human serum
Method: (§2) For mouse, canine, and human sera stability studies, 50 µL of ^177Lu-labeled RM1 or AMBA was mixed with 450 µL of mouse or canine or human serum. The mixtures were incubated at 37 °C for 24 h, samples were processed at each time point, and analyzed by an RP-HPLC method.
as §1
(§3) A literature procedure was followed for the serum stability studies of ^177Lu-labeled RM1 and AMBA [37, 43]. […] Several mixtures, containing 50 µL of ^177Lu-labeled RM1 or AMBA (usually 1.48 to 2.22 MBq radioactivity) and 450 µL of the mouse or human or canine serum, were prepared in HPLC vials and incubated at 37 °C in the block heater. […] The sample was then centrifuged at 6000 rpm for 15 min, and 200 µL of the supernatant solution was isolated and analyzed by an RP- HPLC method given above. A control experiment was conducted where samples of ^177Lu-labeled AMBA and RM1 were incubated in the water at 37 °C and analyzed by the RP-HPLC method.
(§4) Degradation of ^177Lu-labeled RM1 or AMBA was monitored by a reduction in percent HPLC peak area with time. […]

[6] = Stability of high-radioconcentration samples in acetate buffer without and with stabilizers; assay type: physicochemical; conditions: 2–8 °C; for half-life of degradation (t1/2): 0.1 M acetate buffer pH 5, high radioconcentration (0.74 GBq/mL), RP-HPLC, first-order fit, average (SD) n = 3
Method: The ^177Lu-labeled RM1 samples in acetate buffer, with 0.74 GBq/mL radio concentration, 10,175–12,765 GBq/mmol molar activity, and >99% RCP, were prepared for high-radioconcentration sample stability studies. […] Degradation of the high-radioconcentration sample in acetate buffer was at least 20 times faster than the degradation of the low-radioconcentration samples of ^177Lu-labeled RM1.
All mass spectral analyses were performed at the Campus Chemical Instrument Center of the Ohio State University (Columbus, OH, USA) using a Bruker UltrafleXtreme MALDI-TOF MS system. An RP-HPLC method, involving a gradient mobile phase system of 50 mM Tris acetate, 10 mM EDTA at pH 7.2 (solvent A), and acetonitrile (solvent B) with 1 mL/min flow rate, was used to monitor the extent of the reaction of ^177Lu/Lu with AMBA and RM1; for the purity analysis of RM1, AMBA, Lu-RM1, Lu-AMBA, and of the final ^177Lu-labeled samples; and for monitoring the degradation of ^177Lu-labeled RM1 or AMBA samples in acetate buffer, mouse, canine, and human sera. The EDTA was incorporated to detect any unreacted ^177Lu/Lu in the samples. The gradient program used was 0% B at the beginning, raising the percentage of B to 50% in 15 min, holding B at 50% for 4 min, followed by decreasing the percentage of B to 0% in 5 min and continuing 0% for an additional 9 min. The total run time was […].
All samples of ^177Lu-labeled RM1 were prepared in 0.1 M acetate buffer, pH 5–5.5. The ^177Lu-labeled RM1 samples, with a low radioconcentration, were stored at room temperature and at 2–8 °C storage conditions for 6 d for stability studies. The samples with a high radioconcentration, without and with a stabilizer (gentisic acid or ascorbic acid), were stored 2–8 °C for 2 and 7 d, respectively. For the effect of stabilizer (ascorbic acid or gentisic acid) on the stability of the high-radioconcentration samples of ^177Lu-labeled RM1, the samples were mixed with 500 µg of ascorbic or gentisic acid post radiolabeling. The stability or degradation of the samples was monitored by a reduction in the percent HPLC peak area of ^177Lu-labeled RM1 with time.
Degradation of ^177Lu-labeled RM1 or AMBA was monitored by a reduction in percent HPLC peak area with time. Half-lives of in vitro acetate buffer and serum degradation for each imaging pharmaceutical were calculated by fitting the percent peak remaining versus time to a first-order kinetics model (Equations (2) and (3)) using Excel or Graph Pad Prism version 5.03 software (Graph Pad Software, Inc., La Jolla, CA, USA). Pt = P0 exp (−k × t);(2) t1/2 = 0.693/k;(3) where Pt is the percent peak area at time t, Po is the percent peak area initially, t is the time elapsed, k is the first-order rate constant, and t1/2 is the half-life of degradation reaction. All degradation kinetics experiments were conducted in triplicate, and average (n = 3) values (standard deviation given in the parenthesis) of half-life are reported.

[7] = assay type: in vitro ADME, mouse
Method: as §2, §1, §3, §4

## DO3A-CH2CO-G-[4-aminobenzyl]- Gln-Trp-Ala-Val-Gly-His-Leu-Met-NH2 [AMBA, GRPR agonist, BBN-like peptide chelator conjugate, gift from Bracco Diagnostics]
[1]
  IC50: 4.75 ± 0.25 nM

## CC(C)C[C@H](NC(=O)C[C@H](O)[C@H](CC(C)C)NC(=O)[C@H](Cc1c[nH]cn1)NC(=O)CNC(=O)[C@@H](NC(=O)[C@H](C)NC(=O)[C@H](Cc1c[nH]c2ccccc12)NC(=O)[C@H](CCC(N)=O)NC(=O)[C@@H](Cc1ccccc1)NC(=O)c1ccc(NC(=O)CNC(=O)CN2CCN(CC(=O)O)CCN(CC(=O)O)CCN(CC(=O)O)CC2)cc1)C(C)C)C(N)=O [Lu-RM1]
[2]
  log D: −2.46 (0.07)
[3]
  relative lipophilicity from retention times: slightly more lipophilic than Lu-AMBA

## NOTA-PEG2-RM26 (where RM26 = D-Phe-Gln-Trp-Ala-Val-Gly-His-Sta-Leu-NH2) [^111In-labeled NOTA-PEG2-RM26, 111In-labeled NOTA-PEG2 conjugate of the GRPR antagonist peptide RM26]
PC-3 tumor
  specific tumor uptake: 5.7 ± 0.3 %ID/g
GRPR
  IC50: 1.24 ± 0.29 nM

## NOTA-PEG2-RM26 (where RM26 = D-Phe-Gln-Trp-Ala-Val-Gly-His-Sta-Leu-NH2) [^68Ga-labeled NOTA-PEG2-RM26, 68Ga-labeled NOTA-PEG2 conjugate of the GRPR antagonist peptide RM26]
PC-3 tumor
  specific tumor uptake: 8.1 ± 0.4 %ID/g
GRPR
  IC50: 0.91 ± 0.19 nM

## CC(C)C[C@H](NC(=O)C[C@H](O)[C@H](CC(C)C)NC(=O)[C@H](Cc1c[nH]cn1)NC(=O)CNC(=O)[C@@H](NC(=O)[C@H](C)NC(=O)[C@H](Cc1c[nH]c2ccccc12)NC(=O)[C@H](CCC(N)=O)NC(=O)[C@@H](Cc1ccccc1)NC(=O)c1ccc(NC(=O)CNC(=O)CN2CCN(CC(=O)O)CCN(CC(=O)O)CCN(CC(=O)O)CC2)cc1)C(C)C)C(N)=O [^177Lu-labeled RM1, metal not drawn]
[4]
  degraded in acetate buffer within the same time period as the mouse serum study: 10-12%
[5]
  metabolised at 24 h: < 10%
[6]; 500 µg ascorbic acid
  half-life of degradation (t1/2): 39.2 (0.6) h
[6]; 500 µg gentisic acid
  half-life of degradation (t1/2): 142.5 (1.4) h
[6]; no stabilizer
  half-life of degradation (t1/2): 8.5 (0.2) h
[6]; acetate buffer
  degradation of high- versus low-radioconcentration samples, times faster: at least 20 times
[6]; high radioconcentration, 500 µg gentisic acid
  improvement of stability versus no stabilizer: ~17 fold
[6]; high radioconcentration, ascorbic acid
  factor by which degradation is reduced versus control without stabilizer: ≥ 5
[7]
  degradation after 1440 min incubation: complete degradation
